The supplement of paper PMC10724198
± gives the standard deviation of the averaged measurements.

Tested on: Saccharomyces cerevisiae
Assay: protein stability index of tFT-peptide fusion (C-terminal peptide) (PSI (0-1 scale)); higher = more stable (slower turnover)
Settings: temperature: 30 C
Description: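 MPS profiling in S. cerevisiae of the yeast C-terminome library: the last 12 aa of each annotated ORF are fused to the C-terminus of a sfGFP-mCherry timer, after a GGGS linker. Cells are FACS-sorted into 8 mCherry/sfGFP bins and deep-sequenced. PSI runs from 0 (unstable) to 1 (stable); wild type and das1Δ backgrounds, two technical replicates each.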

[1] = genetic background: das1 deletion

Sequence: KDGDVVYDNGFM [CHS7 C-terminal 12 aa]
- protein stability index [1]: 0.7085 ± 0.007
- protein stability index (genetic background: wild type): 0.692 ± 0.01

Sequence: KDINLSEGNENE [URA8 C-terminal 12 aa]
- protein stability index [1]: 0.6774 ± 0.005
- protein stability index (genetic background: wild type): 0.666 ± 0.067

Sequence: KDKKKDKSNSSI [HMO1 C-terminal 12 aa]
- protein stability index [1]: 0.7022 ± 0.0049
- protein stability index (genetic background: wild type): 0.691 ± 0.052

Sequence: KDSIKLLDKARL [MSS2 C-terminal 12 aa]
- protein stability index [1]: 0.774 ± 0.021
- protein stability index (genetic background: wild type): 0.781 ± 0.085

Sequence: KDVIEEALSRFG [UTP7 C-terminal 12 aa]
- protein stability index [1]: 0.704 ± 0.0086
- protein stability index (genetic background: wild type): 0.677 ± 0.027

Sequence: KEKSESLQEEIN [YET3 C-terminal 12 aa]
- protein stability index [1]: 0.691 ± 0.0081
- protein stability index (genetic background: wild type): 0.71 ± 0.032

Sequence: KFDKALYKKTTG [YMR206W C-terminal 12 aa]
- protein stability index [1]: 0.712 ± 0.038
- protein stability index (genetic background: wild type): 0.669 ± 0.03

Sequence: KFKIQNILNSTF [SIP4 C-terminal 12 aa]
- protein stability index [1]: 0.714 ± 0.011
- protein stability index (genetic background: wild type): 0.711 ± 0.0095

Sequence: KGLFWDPACVIA [MFA2 C-terminal 12 aa]
- protein stability index [1]: 0.731 ± 0.022
- protein stability index (genetic background: wild type): 0.728 ± 0.029

Sequence: KGLQTVVVEEDA [RPL31A C-terminal 12 aa]
- protein stability index [1]: 0.6888 ± 0.0012
- protein stability index (genetic background: wild type): 0.683 ± 0.0082

Sequence: KHASELSSNSKF [CTA1 C-terminal 12 aa]
- protein stability index [1]: 0.702 ± 0.029
- protein stability index (genetic background: wild type): 0.681 ± 0.048

Sequence: KHDVLSTLPHNN [SKO1 C-terminal 12 aa]
- protein stability index [1]: 0.7043 ± 0.0056
- protein stability index (genetic background: wild type): 0.687 ± 0.011

Sequence: KHKNILLFNNNT [YAL068W-A C-terminal 12 aa]
- protein stability index [1]: 0.699 ± 0.011
- protein stability index (genetic background: wild type): 0.686 ± 0.017

Sequence: KHVMMDMQQPSQ [MRPS17 C-terminal 12 aa]
- protein stability index [1]: 0.699 ± 0.022
- protein stability index (genetic background: wild type): 0.674 ± 0.027

Sequence: KILVFDKNLMNR [YLR154W-E C-terminal 12 aa]
- protein stability index [1]: 0.699 ± 0.0098
- protein stability index (genetic background: wild type): 0.688 ± 0.019

Sequence: KKDFNEDDSLFG [VPS55 C-terminal 12 aa]
- protein stability index [1]: 0.722 ± 0.013
- protein stability index (genetic background: wild type): 0.694 ± 0.0072

Sequence: KKKRNKNKKAGK [ETP1 C-terminal 12 aa]
- protein stability index [1]: 0.691 ± 0.023
- protein stability index (genetic background: wild type): 0.698 ± 0.014

Sequence: KKKSKSSKKVKV [ESF1 C-terminal 12 aa]
- protein stability index [1]: 0.707 ± 0.017
- protein stability index (genetic background: wild type): 0.653 ± 0.0087

Sequence: KKQLLPSKTVDN [HED1 C-terminal 12 aa]
- protein stability index [1]: 0.688 ± 0.013
- protein stability index (genetic background: wild type): 0.66 ± 0.04

Sequence: KKRDPITGEVFE [ERG5 C-terminal 12 aa]
- protein stability index [1]: 0.6849 ± 0.0021
- protein stability index (genetic background: wild type): 0.667 ± 0.016

Sequence: KLDVDDEENEGF [MRD1 C-terminal 12 aa]
- protein stability index [1]: 0.684 ± 0.029
- protein stability index (genetic background: wild type): 0.653 ± 0.011

Sequence: KLENESLPNLSG [TRI1 C-terminal 12 aa]
- protein stability index [1]: 0.691 ± 0.013
- protein stability index (genetic background: wild type): 0.685 ± 0.016

Sequence: KNEELSKKHFSK [ROK1 C-terminal 12 aa]
- protein stability index [1]: 0.718 ± 0.013
- protein stability index (genetic background: wild type): 0.74 ± 0.12

Sequence: KPPKNKYKVVRR [SEC65 C-terminal 12 aa]
- protein stability index [1]: 0.714 ± 0.03
- protein stability index (genetic background: wild type): 0.681 ± 0.0014

Sequence: KQKDKEKNALLL [YBR113W C-terminal 12 aa]
- protein stability index [1]: 0.689 ± 0.016
- protein stability index (genetic background: wild type): 0.6802 ± 0.0029

Sequence: KRKRRKVRARSK [RPL41A C-terminal 12 aa]
- protein stability index [1]: 0.7678 ± 0.006
- protein stability index (genetic background: wild type): 0.764 ± 0.066

Sequence: KSASSSPAPKDT [TRM10 C-terminal 12 aa]
- protein stability index [1]: 0.693 ± 0.013
- protein stability index (genetic background: wild type): 0.708 ± 0.011

Sequence: KTDPNEPANDYR [DLD1 C-terminal 12 aa]
- protein stability index [1]: 0.6799 ± 0.00072
- protein stability index (genetic background: wild type): 0.686 ± 0.032

Sequence: KTFSYKRPSTFY [RPL20A C-terminal 12 aa]
- protein stability index [1]: 0.6745 ± 0.0049
- protein stability index (genetic background: wild type): 0.732 ± 0.039

Sequence: KTGKEVRSGKQL [ATX1 C-terminal 12 aa]
- protein stability index [1]: 0.689 ± 0.0069
- protein stability index (genetic background: wild type): 0.679 ± 0.022

Sequence: KTYLNFADNGQI [ELM1 C-terminal 12 aa]
- protein stability index [1]: 0.675 ± 0.0079
- protein stability index (genetic background: wild type): 0.721 ± 0.062

Sequence: KVESSDCSFEFA [VID24 C-terminal 12 aa]
- protein stability index [1]: 0.6988 ± 0.0069
- protein stability index (genetic background: wild type): 0.696 ± 0.011

Sequence: KVNENWKRYGYK [FDC1 C-terminal 12 aa]
- protein stability index [1]: 0.6814 ± 0.0052
- protein stability index (genetic background: wild type): 0.703 ± 0.027

Sequence: KYGIYLKEKTVA [LYS9 C-terminal 12 aa]
- protein stability index [1]: 0.663 ± 0.013
- protein stability index (genetic background: wild type): 0.4895 ± 0.0018

Sequence: KYILAWLRKVLL [YFL012W-A C-terminal 12 aa]
- protein stability index [1]: 0.651 ± 0.031
- protein stability index (genetic background: wild type): 0.456 ± 0.013

Sequence: LAFYLRRLTAKK [RPS8A C-terminal 12 aa]
- protein stability index [1]: 0.674 ± 0.041
- protein stability index (genetic background: wild type): 0.657 ± 0.0076

Sequence: LCHSSHIPETLK [MSN1 C-terminal 12 aa]
- protein stability index [1]: 0.719 ± 0.033
- protein stability index (genetic background: wild type): 0.663 ± 0.042

Sequence: LCKEELKYQAIQ [YMR099C C-terminal 12 aa]
- protein stability index [1]: 0.701 ± 0.037
- protein stability index (genetic background: wild type): 0.6649 ± 0.0029

Sequence: LCQHYIGWCPFW [TOR1 C-terminal 12 aa]
- protein stability index [1]: 0.7144 ± 0.0024
- protein stability index (genetic background: wild type): 0.687 ± 0.011

Sequence: LDGSREVGAAKS [UME1 C-terminal 12 aa]
- protein stability index [1]: 0.682 ± 0.026
- protein stability index (genetic background: wild type): 0.7109 ± 0.0018

Sequence: LDKELTDGCKQQ [PEX19 C-terminal 12 aa]
- protein stability index [1]: 0.7031 ± 0.005
- protein stability index (genetic background: wild type): 0.684 ± 0.012

Sequence: LDKVGKKKGGKK [LRP1 C-terminal 12 aa]
- protein stability index [1]: 0.701 ± 0.049
- protein stability index (genetic background: wild type): 0.689 ± 0.025

Sequence: LDLWRDFLNQAN [IDS2 C-terminal 12 aa]
- protein stability index [1]: 0.742 ± 0.015
- protein stability index (genetic background: wild type): 0.629 ± 0.029

Sequence: LDQFEINSDGEE [NCS2 C-terminal 12 aa]
- protein stability index [1]: 0.691 ± 0.022
- protein stability index (genetic background: wild type): 0.709 ± 0.012

Sequence: LEAATNFLLDSA [EDE1 C-terminal 12 aa]
- protein stability index [1]: 0.722 ± 0.027
- protein stability index (genetic background: wild type): 0.6796 ± 0.004

Sequence: LELEFNSHFELK [HNT3 C-terminal 12 aa]
- protein stability index [1]: 0.69 ± 0.008
- protein stability index (genetic background: wild type): 0.7 ± 0.041

Sequence: LEWLSNSLKNST [ARF1 C-terminal 12 aa]
- protein stability index [1]: 0.735 ± 0.034
- protein stability index (genetic background: wild type): 0.6802 ± 0.0039

Sequence: LFVEETNDIGYK [TRE2 C-terminal 12 aa]
- protein stability index [1]: 0.736 ± 0.026
- protein stability index (genetic background: wild type): 0.691 ± 0.021

Sequence: LFYVMTMTKFLF [PHM6 C-terminal 12 aa]
- protein stability index [1]: 0.5199 ± 0.0025
- protein stability index (genetic background: wild type): 0.364 ± 0.0018

Sequence: LGDAYVSSDEEF [YEF3 C-terminal 12 aa]
- protein stability index [1]: 0.683 ± 0.016
- protein stability index (genetic background: wild type): 0.6769 ± 0.0049

Sequence: LGEYIEEMNIRS [YBP2 C-terminal 12 aa]
- protein stability index [1]: 0.7143 ± 0.0008
- protein stability index (genetic background: wild type): 0.684 ± 0.018

Sequence: LGGLLTVLIWFL [KRE1 C-terminal 12 aa]
- protein stability index [1]: 0.335 ± 0.004
- protein stability index (genetic background: wild type): 0.332 ± 0.014

Sequence: LIDSVKKKVNND [SAC3 C-terminal 12 aa]
- protein stability index [1]: 0.681 ± 0.029
- protein stability index (genetic background: wild type): 0.697 ± 0.069

Sequence: LIGGNTNDGLSK [CHA4 C-terminal 12 aa]
- protein stability index [1]: 0.683 ± 0.023
- protein stability index (genetic background: wild type): 0.722 ± 0.029

Sequence: LIMELAVNSQSN [SNF1 C-terminal 12 aa]
- protein stability index [1]: 0.681 ± 0.034
- protein stability index (genetic background: wild type): 0.691 ± 0.027

Sequence: LIQFLEPSKRVA [YPT35 C-terminal 12 aa]
- protein stability index [1]: 0.72 ± 0.037
- protein stability index (genetic background: wild type): 0.722 ± 0.042

Sequence: LITTRTVHRSLD [YEL076C-A C-terminal 12 aa]
- protein stability index [1]: 0.6963 ± 0.0014
- protein stability index (genetic background: wild type): 0.6572 ± 0.0041

Sequence: LKDLEKLGWKDE [YGR054W C-terminal 12 aa]
- protein stability index [1]: 0.695 ± 0.013
- protein stability index (genetic background: wild type): 0.666 ± 0.022

Sequence: LKKQIFEKVQKE [MET4 C-terminal 12 aa]
- protein stability index [1]: 0.701 ± 0.02
- protein stability index (genetic background: wild type): 0.635 ± 0.022

Sequence: LKPWEGRIYISE [IMA1 C-terminal 12 aa]
- protein stability index [1]: 0.714 ± 0.016
- protein stability index (genetic background: wild type): 0.6846 ± 0.0068

Sequence: LKSLSKYSVQNS [CTF3 C-terminal 12 aa]
- protein stability index [1]: 0.686 ± 0.014
- protein stability index (genetic background: wild type): 0.678 ± 0.042
